Changes are numbered by the printed parent chain. Numbers in names are those of the source.

To fix the notation:
B1: T20S α subunit, wild type (natural protein, Thermoplasma acidophilum)
chain: MQQGQMAYDRAITVFSPDGRLFQVEYAREAVKKGSTALGMKFANGVLLISDKKVRSRLIEQNSIEKIQLIDDYVAAVTSGLVADARVLVDFARISAQQEKVTYGSLVNIENLVKRVADQMQQYTQYGGVRPYGVSLIFAGIDQIGPRLFDCDPAGTINEYKATAIGSGKDAVVSFLEREYKENLPEKEAVTLGIKALKSSLEEGEELKAPEIASITVGNKYRIYDQEEVKKFL
notes: Proteasome subunit alpha, Thermoplasma acidophilum; Subunit of m1, written alone for the subunit-subunit rows of the structures; also called proteasome α-subunit
B2: T20S β subunit (natural protein, Thermoplasma acidophilum, UniProt P28061 9-211, looked up)
chain: TTTVGITLKDAVIMATERRVTMENFIMHKNGKKLFQIDTYTGMTIAGLVGDAQVLVRYMKAELELYRLQRRVNMPIEAVATLLSNMLNQVKYMPYMVQLLVGGIDTAPHVFSIDAAGGSVEDIYASTGSGSPFVYGVLESQYSEKMTVDEGVDLVIRAISAAKQRDSASGGMIDVAVITRKDGYVQLPTDQIESRIRKLGLIL
notes: Proteasome subunit beta, Thermoplasma acidophilum; Subunit of m1, written alone for the subunit-subunit rows of the structures
B3: T20S α subunit L81Y (natural protein, Thermoplasma acidophilum)
chain: B1 chain with L81Y
notes: Proteasome subunit alpha, Thermoplasma acidophilum; α subunit of the mutant 20S whose cryo-EM structure is solved here; also called T20S-αL81Y; T20S L81Y

Data set [1] concerns the molecule itself. Put plainly: cryo-EM structure; WT T20S, 0.5 mg/mL in 50 mM Tris pH 7.4, 150 mM NaCl; D7 symmetry; closed gate.
The target of data set [2] is B1. The data set is described as above. The settings on record: both partners purified.
Data set [3] has as its target B3. Description: cryo-EM structure; T20S-αL81Y, 0.5 mg/mL in 50 mM Tris pH 7.4, 150 mM NaCl; D7 symmetry; partially open gate. The settings on record: both partners purified.
Data set [4] concerns the molecule itself. Described as above.

Take B1: the binding result in data set [1] was “binds”.

On to B2, for which the binding result in data set [2], in data set [3] and in data set [4] was “binds” in each case.

B3: the binding result in data set [4] is on record as “binds”.

The values are drawn from PMC10349882, “High resolution structures define divergent and convergent mechanisms of archaeal proteasome activation” (Communications Biology, 2023).
